Results from article PMC4297981 (Scientific Reports, 2015).

Target: the molecule itself
Assay: SDS-PAGE

B1: integrin β1a-TMC variant L749C (transmembrane and cytoplasmic domains, V717-K798, cys-less background), reconstituted in POPC/POPG liposomes (domain or fragment, human, UniProt P05556-1 717-798, looked up)
chain: VVENPESPTGPDIIPIVAGVVAGIVLIGLALLCIWKLLMIIHDRREFAKFEKEKMNAKWDTGENPIYKSAVTTVVNPKYEGK
binding result: binds
